Reference: patent publication US20020127652A1 (published 2002)
One block for each binder: values may come before it.

Target: T1, human FSH receptor (human, UniProt P23945 18-695)
T1 sequence (looked up): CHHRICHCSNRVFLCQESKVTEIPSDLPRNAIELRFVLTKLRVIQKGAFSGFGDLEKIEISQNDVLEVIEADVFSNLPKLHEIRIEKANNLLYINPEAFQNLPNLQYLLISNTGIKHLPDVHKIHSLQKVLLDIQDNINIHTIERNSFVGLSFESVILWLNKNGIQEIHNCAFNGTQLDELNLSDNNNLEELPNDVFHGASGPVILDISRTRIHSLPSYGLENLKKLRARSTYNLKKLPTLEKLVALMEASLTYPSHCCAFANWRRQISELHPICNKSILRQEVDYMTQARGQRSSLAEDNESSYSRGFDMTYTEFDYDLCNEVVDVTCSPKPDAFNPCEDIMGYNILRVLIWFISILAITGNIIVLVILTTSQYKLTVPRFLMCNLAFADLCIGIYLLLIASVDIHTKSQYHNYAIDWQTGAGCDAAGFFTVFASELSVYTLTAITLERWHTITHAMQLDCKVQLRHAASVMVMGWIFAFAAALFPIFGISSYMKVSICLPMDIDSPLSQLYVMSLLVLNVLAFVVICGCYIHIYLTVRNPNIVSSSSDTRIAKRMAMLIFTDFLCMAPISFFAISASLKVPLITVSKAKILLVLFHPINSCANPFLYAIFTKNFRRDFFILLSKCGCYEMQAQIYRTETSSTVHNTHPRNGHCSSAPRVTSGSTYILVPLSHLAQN
Assay: cell-based or functional assay

luciferase signal of the CHO FSH-R/CRE-luc reporter clone, EC50: ~0.01 IU/ml
B1: wildtype human FSH (follicle stimulating hormone), recombinant, produced in CHO K1 cells (ligand)
chain 1: not shown
chain 2: CELTNITIAIEKEECRFCISINTTWCAGYCYTRDLVYKDPARPKIQKTCTFKELVYETVRVPGCAHHADSLYTYPVATQCHCGKCDSDSTDCTVRGLGPSYCSFGEMKE

specific activity (in vitro bioactivity in the FSH luciferase assay per FSH content by ELISA), relative to wildtype FSH: ~0.33 fold of the wildtype reference
B2: FSH1208, variant form of FSH containing two N-linked glycosylations at the N-terminus of the alpha subunit (ligand)
chain 1: not shown
chain 2: B1 chain 2
modifications: both asparagine residues of the N-terminal extension … are glycosylated
